From patent US20190031762A1, “POSTERIOR OCULAR FIBROSIS INHIBITION BY ANTAGONIZING PLACENTAL GROWTH FACTOR” (THROMBOGENICS NV, priority 2016, published 2019)

How the values were obtained:
[1] = tested on: mouse CNV model; assay: Posterior ocular collagen deposition (Col1a staining) in laser-induced CNV mouse model; type: in vivo; conditions: repeat experiment (FIG. 4), day 30, 3.1 μg/eye, compared to PBS
Method: Mice (C57BL/6J, male, 8-10 weeks old) were anesthetized by intraperitoneal injection (135 μL) of a mixture of ketamine hydrochloride (Anesketin; […]) and medetomidine (Domitor; 1 mg/mL) and their pupils dilated with one eye drop (50 μL) Tropicamide (Tropicol™; 5 mg/mL; Thea, Research Papers Clermont-Ferrand, France). Three laser burns were placed in one eye with a green laser at the 9, 12, 3 o'clock positions around the optic disk using a slit lamp delivery system with a hand-held cover slide as a contact lens moisturized with Genteal Gel™ (Novartis, Vilvoorde, Belgium). Each spot was placed with a spot size of 100 μm, laser duration of a 50 milliseconds and a power of 320 mW. […] Finally, 300 μL atipamezole (Antisedan; 5 mg/mL) was injected intraperitoneally to reverse the effect of medetomidine and to reduce sedation time.
At different time points after lasering, the compounds were administered intravitreally (IVT). The animal was anesthetized with a mixture of ketamine hydrochloride/medetomidine and the eye was treated with a drop of 0.4% oxybuprocaine (Unicaine; Thea Pharma). Intravitreal injections (1 μL) to one eye according to Tables 1 to 3 were performed by using an analytic science syringe (SGE Analytic Science) and glass capillaries with a diameter of 50-70 μm at the end, controlled by the UMP3I Microsyringe Injector and Micro4 Controller (all from World Precision Instruments Inc., Hertfordshire, UK). Finally, atipamezole (Antisedan) was injected intraperitoneally to reverse the effect of medetomidine and to reduce sedation time.
To analyze the in vivo efficacy of the different compounds, the retina was removed from the dissected posterior segments. These posterior eye cups, which included retinal pigment epithelium (RPE), the choroid and the sclera were stored in phosphate buffered saline (PBS).
To stain for the presence of collagen type 1 (Colla) protein in the laser spots at day 30 after laser, a rabbit anti-collagen antibody (Abcam, 1/270) was used overnight, diluted in Tris-buffered saline (TBS)-Triton 0.5% (v/v) at 4° C. The following day, the tissues were incubated for 2 hours with goat anti rabbit IgG Alexa Fluor 555 (Life Technologies; A-21428), diluted 1/100 in TBS-Triton 0.3% (v/v) at 4° C. The flat mounts of the posterior eye cups were mounted with Prolong Gold with 4′,6-diamidino-2-phenylindole (DAPI, Molecular Probes). Images were obtained using a microscope with a digital camera (Axiocam MrC5; Carl Zeiss, Oberkochen, Germany) at a magnification factor of 20. Morphometric analyses were performed using commercial software (Axiovision; Zeiss, Oberkochen, Germany). The density of collagen deposition was determined by calculating the Colla-positive area as a proportion of the total lesion.
The mouse CNV model as described in Example 2.1 was used. At different time points after lasering, compounds were administered intraperitoneally (IP), or intravitreally (IVT), as indicated in Table 3.

[2] = biological target: T1, murine PlGF (Mus musculus, UniProt P49764); assay: Binding of antibody to murine PlGF
T1 sequence (P49764 19-158): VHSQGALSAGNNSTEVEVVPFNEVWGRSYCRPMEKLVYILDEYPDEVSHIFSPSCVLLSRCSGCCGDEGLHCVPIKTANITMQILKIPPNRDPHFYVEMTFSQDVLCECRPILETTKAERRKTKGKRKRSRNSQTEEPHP

[3] = biological target: T2, human PlGF (Homo sapiens, UniProt P49763); assay: Binding of antibody to human PlGF
T2 sequence (P49763 19-131 limits assumed): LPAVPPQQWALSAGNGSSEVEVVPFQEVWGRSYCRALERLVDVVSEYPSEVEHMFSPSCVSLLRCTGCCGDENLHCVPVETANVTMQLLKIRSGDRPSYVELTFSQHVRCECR

B1: 16D3: murine anti-human PlGF-neutralizing antibody, CDRs SEQ ID NOs:1-6; hybridoma deposit LMBP 6399CB (antibody, V domains shown)
VH: QVQLQQSGAELVKPGASVKISCKASGYTFTDYYINWVKLAPGQGLEWIGWIYPGSGNTKYNEKFKGKATLTIDTSSSTAYMQLSSLTSEDTAVYFCVRDSPFFDYWGQGTLLTVSS
VL: DIVLTQSPDSLAVSLGERVTMNCKSSQSLLNSGMRKSFLAWYQQKPGQSPKLLIYWASTRESGVPDRFTGSGSGTDFTLTISSVQAEDVAVYYCKQSYHLFTFGSGTKLEIK
modifications: humanized heavy chain amino acid sequence of neutralizing anti-PlGF antibody; humanized light chain amino acid sequence of neutralizing anti-PlGF antibody
notes: hybridoma deposit LMBP 6399CB
- effect on collagen deposition / fibrosis, in words [1]: significantly decreased collagen deposition
- reduction in collagen deposition (Col1a) ([1]; IVT D0, 4, 10 and 20): 34%
- affinity for murine PlGF relative to human PlGF, in words [2]: lower affinity
- binding to human PlGF, in words [3]: binds
